The results in this text go back to article PMC4961225, “The Molecular Basis for Ubiquitin and Ubiquitin-like Specificities in Bacterial Effector Proteases” (Molecular Cell, 2016).

For this experiment, the target named is T1, ubiquitin (uniformly 15N-labeled Ub) (UniProt P0CG48 1-76).
T1 construct: also called 15N-Ub
As to the kind of experiment: NMR titration; uniformly 15N-labeled Ub observed (1H,15N-HSQC TROSY; 80 μM Ub in Figure 6), unlabeled partner added; 25°C. Particulars: both partners purified.

B1: SseL (aa 24–340) (domain or fragment)
chain: VSDEALTLLFSAVENGDQNCIDLLCNLALRNDDLGHRVEKFLFDLFSGKRTGSSDIDKKINQACLVLHQIANNDITKDNTEWKKLHAPSRLLYMAGSATTDLSKKIGIAHKIMGDQFAQTDQEQVGVENLWCGARMLSSDELAAATQGLVQESPLLSVNYPIGLIHPTTKENILSTQLLEKIAQSGLSHNEVFLVNTGDHWLLCLFYKLAEKIKCLIFNTYYDLNENTKQEIIEAAKIAGISESDEVNFIEMNLQNNVPNGCGLFCYHTIQLLSNAGQNDPATTLREFAENFLTLSVEEQALFNTQTRRQIYEYSLQ
For the molecule B1, the binding result is on record as “binds”.
